Measurements from paper PMC6312924.

How the values were obtained:
[1] = target: HA-tagged Atp1a3 T705A (mouse) (UniProt Q8VCE0); assay: co-IP; HEK 293T cells co-transfected with HA-tagged Atp1a3 (WT, TA or TD) and YFP-β1 or YFP-β2; α3 precipitated with anti-HA beads (clone 3F10) 2 h at 4°C in IP buffer (20 mM Tris pH 8.0, 150 mM NaCl, 1% NP40, 10% glycerol); β detected with a GFP antibody; band densitometry normalised to WT
[2] = target: HA-tagged Atp1a3 T705D (mouse) (UniProt Q8VCE0); assay: as above

Substance	co-precipitated higher (complex-glycan) β band, relative intensity normalized to WT (normalized to WT) [1]	co-precipitated lower (intracellular) β band, relative intensity normalized to WT (normalized to WT) [1]	co-precipitated higher (complex-glycan) β band, relative intensity normalized to WT (normalized to WT) [2]	co-precipitated lower (intracellular) β band, relative intensity normalized to WT (normalized to WT) [2]
YFP-tagged Na,K-ATPase β1 subunit (rat) (from UniProt P07340 1-304) (natural protein)	58.3	101	6.59	95
YFP-tagged Na,K-ATPase β2 subunit (human) (from UniProt P14415 1-290) (natural protein)	16.3	82.7	2.81	80.5
